Data reported in the supplement of paper PMC10065799, “High-throughput profiling of sequence recognition by tyrosine kinases and SH2 domains using bacterial peptide display” (eLife, 2023).

Columns and labels:
[1] = system: AncSZ; assay: phosphorylation enrichment, bacterial display (enrichment ratio); higher = better substrate or ligand; peptides without Tyr show the background
[2] = molecular target: EPHB1 (UniProt P54762); assay: as above
[3] = molecular target: EPHB2 (UniProt P29323); assay: as above
[4] = molecular target: FGFR1 (UniProt P11362); assay: as above
[5] = molecular target: FGFR3 (UniProt P22607); assay: as above
[6] = system: Fer (mouse); assay: as above
[7] = molecular target: Fes (UniProt P07332); assay: as above
[8] = molecular target: Fyn (UniProt P06241); assay: as above
[9] = molecular target: Hck (UniProt P08631); assay: as above
[10] = molecular target: Jak2 (UniProt O60674); assay: as above
[11] = molecular target: MERTK (UniProt Q12866); assay: as above
[12] = system: c-Abl (mouse); assay: as above
[13] = system: c-Src; assay: as above
[14] = molecular target: Grb2 SH2 (UniProt P62993); assay: SH2 binding enrichment of the phosphorylated peptide, bacterial display (enrichment ratio); higher = better substrate or ligand; peptides without Tyr show the background
[15] = molecular target: SHP2-C SH2; assay: as above
[16] = molecular target: c-Src SH2; assay: as above
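Wherever SH2 binding enrichment of the phosphorylated peptide, bacterial display is given: peptide library displayed on the E. coli surface as eCPX fusions, selected cells deep-sequenced, score is each peptide's frequency after selection divided by its frequency in the input.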
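Wherever phosphorylation enrichment, bacterial display is given: 11-residue human phosphosite peptides and single-mutation variants displayed on the E. coli surface, counted by deep sequencing, each peptide's frequency after selection divided by its frequency in the unselected input library; frequency after pTyr selection over input frequency; kinase dosed for 20-30% of maximal phosphorylation in three min.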

Sequence of FGFR1 (P11362 whole entry, looked up): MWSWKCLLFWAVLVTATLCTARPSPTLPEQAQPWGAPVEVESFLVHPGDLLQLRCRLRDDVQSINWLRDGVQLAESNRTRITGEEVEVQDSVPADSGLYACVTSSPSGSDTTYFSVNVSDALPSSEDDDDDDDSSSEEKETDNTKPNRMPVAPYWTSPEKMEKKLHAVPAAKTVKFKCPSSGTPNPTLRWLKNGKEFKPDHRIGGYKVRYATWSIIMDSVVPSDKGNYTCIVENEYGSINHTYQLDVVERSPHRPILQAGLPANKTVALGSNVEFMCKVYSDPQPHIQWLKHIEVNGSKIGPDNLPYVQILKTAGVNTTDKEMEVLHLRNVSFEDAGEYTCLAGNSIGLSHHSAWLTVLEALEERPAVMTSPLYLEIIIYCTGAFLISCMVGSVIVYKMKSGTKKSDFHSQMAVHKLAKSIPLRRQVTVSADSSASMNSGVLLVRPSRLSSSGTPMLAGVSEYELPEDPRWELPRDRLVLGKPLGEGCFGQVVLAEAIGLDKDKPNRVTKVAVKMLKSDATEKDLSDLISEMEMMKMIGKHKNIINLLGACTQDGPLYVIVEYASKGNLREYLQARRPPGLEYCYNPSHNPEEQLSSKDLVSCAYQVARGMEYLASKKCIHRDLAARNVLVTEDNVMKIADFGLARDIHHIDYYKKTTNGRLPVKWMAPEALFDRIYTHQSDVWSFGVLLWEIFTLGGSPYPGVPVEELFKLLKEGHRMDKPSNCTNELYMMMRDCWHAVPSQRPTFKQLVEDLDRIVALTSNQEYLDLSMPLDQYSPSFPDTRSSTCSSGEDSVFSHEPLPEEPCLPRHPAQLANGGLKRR
Sequence of EPHB2 (P29323 whole entry, looked up): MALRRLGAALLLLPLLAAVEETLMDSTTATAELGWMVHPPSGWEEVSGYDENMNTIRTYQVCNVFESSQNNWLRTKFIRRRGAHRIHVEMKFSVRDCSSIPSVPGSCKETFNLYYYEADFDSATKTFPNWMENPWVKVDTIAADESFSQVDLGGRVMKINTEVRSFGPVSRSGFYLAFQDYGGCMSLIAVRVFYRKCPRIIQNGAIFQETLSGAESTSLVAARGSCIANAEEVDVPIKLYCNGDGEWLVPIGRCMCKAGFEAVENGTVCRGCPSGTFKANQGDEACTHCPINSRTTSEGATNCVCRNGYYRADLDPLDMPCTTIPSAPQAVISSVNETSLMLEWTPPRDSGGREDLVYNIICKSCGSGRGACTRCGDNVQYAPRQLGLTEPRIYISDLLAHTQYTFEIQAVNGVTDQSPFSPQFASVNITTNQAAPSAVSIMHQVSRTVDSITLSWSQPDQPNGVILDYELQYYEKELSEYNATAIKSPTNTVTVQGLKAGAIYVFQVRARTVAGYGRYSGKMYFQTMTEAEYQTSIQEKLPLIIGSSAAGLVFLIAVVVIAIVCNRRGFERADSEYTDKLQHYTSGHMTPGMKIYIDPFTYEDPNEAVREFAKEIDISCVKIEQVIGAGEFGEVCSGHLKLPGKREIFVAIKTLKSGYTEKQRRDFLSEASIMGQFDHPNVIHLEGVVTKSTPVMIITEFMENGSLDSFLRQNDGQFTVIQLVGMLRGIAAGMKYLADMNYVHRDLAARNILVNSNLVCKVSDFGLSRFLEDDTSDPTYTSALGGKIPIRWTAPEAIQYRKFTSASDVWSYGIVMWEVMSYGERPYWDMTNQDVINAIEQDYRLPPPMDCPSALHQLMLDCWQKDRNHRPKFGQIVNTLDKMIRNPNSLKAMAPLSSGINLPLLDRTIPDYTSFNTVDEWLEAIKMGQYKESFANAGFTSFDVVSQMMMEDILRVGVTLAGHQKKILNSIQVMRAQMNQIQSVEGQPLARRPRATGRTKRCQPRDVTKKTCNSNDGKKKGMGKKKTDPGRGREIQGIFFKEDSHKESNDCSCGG
Sequence of Hck (P08631 whole entry, looked up): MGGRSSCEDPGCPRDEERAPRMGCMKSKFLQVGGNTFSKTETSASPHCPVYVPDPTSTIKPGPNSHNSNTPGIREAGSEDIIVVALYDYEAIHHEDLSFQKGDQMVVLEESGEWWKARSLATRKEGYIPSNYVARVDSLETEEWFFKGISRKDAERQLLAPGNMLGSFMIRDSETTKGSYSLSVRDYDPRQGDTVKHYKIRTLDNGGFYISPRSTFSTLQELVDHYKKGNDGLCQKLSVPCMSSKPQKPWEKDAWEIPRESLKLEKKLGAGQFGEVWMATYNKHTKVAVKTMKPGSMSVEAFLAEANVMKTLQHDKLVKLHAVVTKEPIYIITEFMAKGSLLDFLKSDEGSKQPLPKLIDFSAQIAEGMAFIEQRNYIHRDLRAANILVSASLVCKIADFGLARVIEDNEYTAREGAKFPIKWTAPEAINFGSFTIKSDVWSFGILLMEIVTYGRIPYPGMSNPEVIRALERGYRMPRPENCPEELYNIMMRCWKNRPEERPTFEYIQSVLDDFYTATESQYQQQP
Sequence of Grb2 SH2 (P62993 whole entry, looked up): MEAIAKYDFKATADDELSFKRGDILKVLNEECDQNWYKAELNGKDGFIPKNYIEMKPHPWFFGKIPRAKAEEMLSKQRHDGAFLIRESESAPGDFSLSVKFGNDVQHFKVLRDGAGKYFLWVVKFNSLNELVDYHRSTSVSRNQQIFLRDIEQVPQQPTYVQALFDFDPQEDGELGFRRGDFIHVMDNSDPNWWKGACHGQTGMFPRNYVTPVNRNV
Sequence of EPHB1 (P54762 whole entry, looked up): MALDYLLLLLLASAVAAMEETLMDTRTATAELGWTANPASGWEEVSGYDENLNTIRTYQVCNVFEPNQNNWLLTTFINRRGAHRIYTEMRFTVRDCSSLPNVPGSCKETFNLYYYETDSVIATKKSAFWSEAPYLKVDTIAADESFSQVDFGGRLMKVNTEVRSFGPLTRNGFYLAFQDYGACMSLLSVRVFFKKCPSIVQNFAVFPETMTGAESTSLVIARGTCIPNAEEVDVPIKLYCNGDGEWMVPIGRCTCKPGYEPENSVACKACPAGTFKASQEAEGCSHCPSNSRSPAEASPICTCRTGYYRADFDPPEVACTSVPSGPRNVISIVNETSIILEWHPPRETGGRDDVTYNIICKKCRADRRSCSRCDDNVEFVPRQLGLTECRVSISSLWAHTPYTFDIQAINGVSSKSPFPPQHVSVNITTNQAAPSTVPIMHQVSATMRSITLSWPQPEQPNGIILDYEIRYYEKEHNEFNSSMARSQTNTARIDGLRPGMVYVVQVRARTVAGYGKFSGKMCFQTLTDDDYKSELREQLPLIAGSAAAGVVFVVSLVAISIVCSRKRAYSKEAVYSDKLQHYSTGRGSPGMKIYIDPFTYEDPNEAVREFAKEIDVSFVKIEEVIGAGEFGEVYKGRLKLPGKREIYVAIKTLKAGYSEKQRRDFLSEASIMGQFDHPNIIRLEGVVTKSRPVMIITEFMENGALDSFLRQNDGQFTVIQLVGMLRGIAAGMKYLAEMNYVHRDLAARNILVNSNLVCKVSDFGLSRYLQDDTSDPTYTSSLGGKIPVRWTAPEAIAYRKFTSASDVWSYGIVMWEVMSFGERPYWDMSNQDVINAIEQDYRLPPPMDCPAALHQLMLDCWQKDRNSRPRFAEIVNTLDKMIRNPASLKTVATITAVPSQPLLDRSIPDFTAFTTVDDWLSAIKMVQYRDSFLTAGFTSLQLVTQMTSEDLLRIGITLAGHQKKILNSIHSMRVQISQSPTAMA
Sequence of FGFR3 (P22607 whole entry, looked up): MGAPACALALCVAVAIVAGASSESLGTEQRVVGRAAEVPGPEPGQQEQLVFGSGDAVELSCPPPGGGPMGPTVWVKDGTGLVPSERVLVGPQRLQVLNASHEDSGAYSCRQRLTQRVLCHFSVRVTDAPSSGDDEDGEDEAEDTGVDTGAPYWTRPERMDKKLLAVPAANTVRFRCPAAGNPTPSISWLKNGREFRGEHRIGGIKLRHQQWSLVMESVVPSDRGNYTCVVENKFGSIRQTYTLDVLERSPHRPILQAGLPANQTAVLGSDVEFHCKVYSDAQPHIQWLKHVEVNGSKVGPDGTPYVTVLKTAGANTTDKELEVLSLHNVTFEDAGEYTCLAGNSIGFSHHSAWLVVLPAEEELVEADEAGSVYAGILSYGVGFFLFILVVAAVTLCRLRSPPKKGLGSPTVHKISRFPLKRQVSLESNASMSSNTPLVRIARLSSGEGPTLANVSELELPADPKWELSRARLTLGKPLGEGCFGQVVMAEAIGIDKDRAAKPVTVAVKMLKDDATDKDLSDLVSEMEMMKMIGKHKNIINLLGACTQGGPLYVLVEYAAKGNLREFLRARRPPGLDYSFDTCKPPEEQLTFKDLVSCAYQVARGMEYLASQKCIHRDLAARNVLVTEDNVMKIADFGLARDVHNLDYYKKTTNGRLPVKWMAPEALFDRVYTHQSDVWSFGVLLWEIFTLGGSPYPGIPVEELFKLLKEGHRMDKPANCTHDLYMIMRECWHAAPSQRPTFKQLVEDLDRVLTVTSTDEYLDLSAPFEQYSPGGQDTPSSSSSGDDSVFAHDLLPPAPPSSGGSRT
Sequence of Fyn (P06241 whole entry, looked up): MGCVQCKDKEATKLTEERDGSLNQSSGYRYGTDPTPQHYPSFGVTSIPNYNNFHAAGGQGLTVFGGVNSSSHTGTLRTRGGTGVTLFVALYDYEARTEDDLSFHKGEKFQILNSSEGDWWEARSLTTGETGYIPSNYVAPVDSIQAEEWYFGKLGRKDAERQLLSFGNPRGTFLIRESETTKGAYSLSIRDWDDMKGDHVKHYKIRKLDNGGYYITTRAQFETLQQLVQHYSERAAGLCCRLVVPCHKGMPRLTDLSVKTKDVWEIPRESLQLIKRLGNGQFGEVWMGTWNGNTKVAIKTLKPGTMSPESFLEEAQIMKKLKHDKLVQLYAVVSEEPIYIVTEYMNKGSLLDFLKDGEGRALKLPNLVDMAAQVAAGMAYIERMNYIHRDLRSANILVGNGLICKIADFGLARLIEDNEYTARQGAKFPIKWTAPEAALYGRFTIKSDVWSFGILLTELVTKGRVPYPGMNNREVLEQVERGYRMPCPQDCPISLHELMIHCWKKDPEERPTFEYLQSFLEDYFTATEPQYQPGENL

| Sequence | phosphorylation enrichment [1] | phosphorylation enrichment [2] | phosphorylation enrichment [3] | phosphorylation enrichment [4] | phosphorylation enrichment [5] | phosphorylation enrichment [6] | phosphorylation enrichment [7] | phosphorylation enrichment [8] | phosphorylation enrichment [9] | phosphorylation enrichment [10] | phosphorylation enrichment [11] | phosphorylation enrichment [12] | phosphorylation enrichment [13] | SH2 binding enrichment [14] | SH2 binding enrichment [15] | SH2 binding enrichment [16] |
| --- | --- | --- | --- | --- | --- | --- | --- | --- | --- | --- | --- | --- | --- | --- | --- | --- |
| PVKDPYVMFPQ [PLEKHG2_Y489] | 0.982 | 0.603 | 0.562 | 2.05 | 1.54 | 0.49 | 1.03 | 1.62 | 0.685 | 0.964 | 0.47 | 0.636 | 2.43 | 0.569 | 0.453 | 2.35 |
| PVQAAYPKVVA [HBB_Y131_Q132P] | 0.706 | 0.902 | 0.542 | 0.322 | 0.503 | 0.261 | 0.804 | 0.42 | 0.335 | 0.828 | 0.504 | 0.501 | 1 | 0.904 | 0.697 | 0.386 |
| PYADPYYDYEI [ZC3H18_Y371] | 4.79 | 5.6 | 4.58 | 20.2 | 19.8 | 6.03 | 2.33 | 6.02 | 3.13 | 2.75 | 4.93 | 1.16 | 8.11 | 0.795 | 1.03 | 1.94 |
| PYGQWYESHYA [RPS8_Y113_R110G] | 1.55 | 14.5 | 15.1 | 2.7 | 2.15 | 20.6 | 2.16 | 6.11 | 5.96 | 1.09 | 9.28 | 1.06 | 6.96 | 0.808 | 0.992 | 1.47 |
| PYSNSYENSLI [EPOR_Y489_P488S] | 1.32 | 0.713 | 0.433 | 1.04 | 0.854 | 0.754 | 1.41 | 0.699 | 0.887 | 0.903 | 0.552 | 1.06 | 0.689 | 18.4 | 0.735 | 4.51 |
| QCQLKYSETPF [SIX6OS1_Y129_Y125C] | 1.24 | 0.634 | 0.722 | 0.68 | 0.842 | 0.798 | 1.32 | 0.558 | 0.749 | 1.01 | 0.82 | 0.933 | 0.717 | 0.876 | 0.61 | 0.644 |
| QCTSAHPLQPE [NANS_Y188_Y188H] | 1.25 | 1.07 | 0.923 | 0.966 | 0.961 | 0.726 | 1.73 | 0.601 | 0.771 | 1.28 | 0.449 | 1.09 | 0.461 | 0.672 | 0.465 | 0.594 |
| QDEHGYISWCF [HSPB1_Y133_R136W] | 2.17 | 1 | 0.873 | 1.27 | 1.8 | 1.05 | 2.34 | 0.559 | 0.944 | 2.61 | 0.8 | 1.55 | 0.865 | 0.64 | 0.463 | 0.545 |
| QEALEYFMKQM [PIK3CA_Y1038] | 1.36 | 0.644 | 0.624 | 0.627 | 0.704 | 0.584 | 1.22 | 0.696 | 0.39 | 1.49 | 0.584 | 1.19 | 0.675 | 0.667 | 0.698 | 0.636 |
| QEGPEYWDQQT [HLA-A_Y83_E87Q] | 2.09 | 1.31 | 0.967 | 1.01 | 1.21 | 0.884 | 2.21 | 0.741 | 0.58 | 2.33 | 0.649 | 1.78 | 0.937 | 0.664 | 0.612 | 0.421 |
| QEIATYRRLLE [KRT14_Y415] | 0.689 | 0.418 | 0.53 | 0.509 | 0.68 | 0.411 | 0.936 | 0.562 | 0.453 | 0.693 | 0.464 | 0.563 | 0.503 | 0.862 | 0.58 | 0.413 |
| QEIATYRRLPE [KRT16_Y417_L421P] | 0.762 | 0.77 | 0.592 | 0.507 | 0.737 | 0.406 | 0.757 | 0.525 | 0.553 | 0.73 | 0.489 | 0.683 | 0.38 | 0.855 | 0.593 | 0.441 |
| QEKKGYFEDRR [GLUL_Y336] | 0.907 | 0.618 | 0.577 | 0.682 | 0.733 | 0.821 | 1 | 0.906 | 0.792 | 0.628 | 0.605 | 1.2 | 0.469 | 1.02 | 0.761 | 0.952 |
| QFNMQYSSSAA [ERBB2IP_Y981_I979M_YF] | 0.937 | 0.592 | 0.529 | 0.558 | 0.674 | 0.492 | 1.18 | 0.388 | 0.47 | 0.581 | 0.492 | 0.449 | 0.346 | 0.694 | 0.527 | 0.643 |
| QISSNYDDAMQ [ZNF281_Y531] | 0.962 | 0.665 | 0.771 | 0.434 | 0.703 | 0.533 | 0.978 | 0.348 | 0.499 | 0.939 | 0.845 | 0.569 | 0.57 | 0.667 | 0.728 | 1.11 |
| QITQVCGFFDE [PPP2CA_Y127_Y127C_YF] | 1.56 | 0.645 | 0.871 | 0.5 | 1.24 | 0.612 | 1.95 | 0.434 | 0.645 | 1.92 | 0.812 | 1.65 | 0.599 | 1.03 | 0.587 | 0.521 |
| QKDTFYGLRSL [IGSF10_Y126] | 0.73 | 0.488 | 0.927 | 0.562 | 0.562 | 0.474 | 1.12 | 0.498 | 0.598 | 1 | 0.552 | 0.837 | 0.807 | 0.952 | 0.488 | 0.439 |
| QKPLGYFRVNL [GALE_Y104_D103G_YF] | 1.2 | 0.518 | 0.635 | 0.839 | 0.722 | 0.399 | 1.12 | 0.657 | 0.648 | 1.16 | 0.577 | 0.67 | 0.409 | 1.56 | 1.36 | 1.09 |
| QLGLQYSQGLV [EIF2B4_Y214_R209Q] | 0.995 | 0.427 | 0.479 | 0.478 | 0.776 | 0.527 | 0.835 | 0.447 | 0.598 | 1.75 | 0.731 | 0.861 | 0.629 | 0.644 | 0.721 | 0.375 |
| QLHEHYKIHKE [NSMAF_Y626] | 0.748 | 0.455 | 0.597 | 0.311 | 0.772 | 0.563 | 0.95 | 0.697 | 0.526 | 0.641 | 0.878 | 0.623 | 0.777 | 0.985 | 0.747 | 0.637 |
| QLYGPYLRIHA [BSCL2_Y213_A212P] | 0.87 | 0.897 | 2.03 | 0.344 | 0.73 | 0.596 | 1.12 | 2.04 | 2.83 | 0.974 | 0.538 | 0.612 | 2.52 | 1.29 | 1.54 | 1.07 |
| QMIETYFDFRV [NSMF_Y506_L511V] | 1.77 | 2.29 | 1.46 | 5.84 | 4.49 | 0.679 | 1.39 | 3.37 | 2.77 | 2.78 | 1.09 | 0.887 | 4.53 | 0.642 | 0.607 | 0.581 |
| QMVGMYASSFM [AVPR2_Y124_YF] | 0.981 | 0.922 | 0.914 | 0.73 | 0.782 | 0.904 | 1.07 | 1.59 | 1.34 | 1.21 | 2.31 | 1.48 | 1.6 | 0.626 | 0.637 | 0.548 |
| QPSALYEDRFL [ASS1_Y83_S79P_YF] | 1.4 | 3.04 | 2.01 | 0.816 | 1.12 | 10.6 | 1.4 | 1.77 | 6.97 | 0.968 | 1.11 | 0.881 | 1.41 | 0.783 | 0.684 | 0.633 |
| QPSALYEDRYL [ASS1_Y83_S79P] | 0.93 | 1.67 | 1.16 | 0.529 | 0.625 | 6.74 | 1.06 | 0.946 | 3.92 | 1.04 | 0.78 | 0.681 | 0.942 | 0.918 | 0.461 | 0.984 |
| QPSPSYDSSGG [TCF12_Y70_R74G] | 0.668 | 0.44 | 0.778 | 0.611 | 0.623 | 0.553 | 0.731 | 0.667 | 0.604 | 0.579 | 0.452 | 0.477 | 0.478 | 1.02 | 0.977 | 0.573 |
| QQMGTYGVRAA [ICAM2_Y260_R256Q] | 0.33 | 0.281 | 0.414 | 0.392 | 0.417 | 0.339 | 0.579 | 2.06 | 3.77 | 0.313 | 0.658 | 0.442 | 2.48 | 1.07 | 0.373 | 0.37 |
| QRIHDYFEHRF [HCN4_Y554_YF] | 1.06 | 0.614 | 0.843 | 5.67 | 3.23 | 0.872 | 0.656 | 0.479 | 0.527 | 0.575 | 0.447 | 0.625 | 0.496 | 0.847 | 0.46 | 0.957 |
| QRIHNYFEHRF [HCN4_Y554_D553N_YF] | 0.647 | 0.543 | 0.443 | 0.719 | 0.374 | 0.343 | 0.692 | 0.441 | 0.409 | 0.34 | 0.567 | 0.34 | 0.493 | 1.16 | 1.22 | 1.31 |
